From paper doi:10.1101/2025.11.13.688182

Target: RAD51 full-length [F86E, A89E], co-expressed with BRC repeats (human) (UniProt Q06609)
Experiment: SEC-SAXS

UniProt Q06609, sequence (Q06609 whole entry F86E/A89E): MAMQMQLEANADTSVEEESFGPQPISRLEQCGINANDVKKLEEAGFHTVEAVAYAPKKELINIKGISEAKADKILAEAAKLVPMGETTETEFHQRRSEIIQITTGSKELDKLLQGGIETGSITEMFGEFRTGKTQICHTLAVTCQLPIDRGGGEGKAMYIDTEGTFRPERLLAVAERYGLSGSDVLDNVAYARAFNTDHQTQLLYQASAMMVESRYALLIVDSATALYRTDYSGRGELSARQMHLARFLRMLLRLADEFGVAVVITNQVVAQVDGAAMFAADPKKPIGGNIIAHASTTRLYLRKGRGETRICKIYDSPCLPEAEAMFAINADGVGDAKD

stoichiometry, BRC repeats to RAD51 (RAD51 per BRC repeat), 1:
BRCA2 truncation BRC2-4 (from UniProt P51587 1-3418) (domain or fragment)
BRCA2 truncation BRC1-4 (from UniProt P51587 1-3418) (domain or fragment)
BRCA2 truncation BRC3-4 (from UniProt P51587 1-3418) (domain or fragment)
BRCA2 truncation BRC2-3 (from UniProt P51587 1-3418) (domain or fragment)
BRCA2 truncation BRC1-2 (from UniProt P51587 1-3418) (domain or fragment)
